{
  "source": "patent US20220298218A1",
  "about": "(ANTAG THERAPEUTICS, published 2022)",
  "note": "Where no end group is shown, it is not given here. [ ]: non-standard residue; d: D form. The star is where a group is joined. C16 diacid = O=C(O)CCCCCCCCCCCCCCC(=O)*; Nle = CCCC[C@H](N)C(=O)O; Aib = CC(C)(N)C(=O)O",
  "data": [
    {"target": "T1, human GIP receptor (human, UniProt P48546 22-466)", "T1 sequence (looked up)": "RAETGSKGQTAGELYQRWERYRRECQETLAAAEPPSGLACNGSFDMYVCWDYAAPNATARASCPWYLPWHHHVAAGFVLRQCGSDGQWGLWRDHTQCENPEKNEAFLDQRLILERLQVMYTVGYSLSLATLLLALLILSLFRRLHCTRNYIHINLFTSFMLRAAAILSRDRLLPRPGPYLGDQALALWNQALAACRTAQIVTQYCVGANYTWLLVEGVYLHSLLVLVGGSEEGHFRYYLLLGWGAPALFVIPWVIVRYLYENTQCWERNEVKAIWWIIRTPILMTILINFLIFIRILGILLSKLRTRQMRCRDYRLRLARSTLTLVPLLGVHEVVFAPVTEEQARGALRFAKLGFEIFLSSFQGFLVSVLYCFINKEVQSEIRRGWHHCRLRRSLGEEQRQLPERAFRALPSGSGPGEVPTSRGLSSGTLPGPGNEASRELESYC", "test": "cell-based or functional assay", "units": {"cAMP agonism % Emax": "%", "cAMP antagonism": "nM", "cAMP antagonism % inhib": "%"}, "values": [
      {"binder": "EGTFISDYSI[Aib][Nle]DKIK(C16 diacid)QQDFVEWLLAQKPSSGAPPPS-OH", "note": "[AT667]", "cAMP agonism % Emax": 4, "cAMP antagonism": 0.736, "cAMP antagonism % inhib": 86, "cAMP antagonism pIC50": 9.1},
      {"binder": "EGTFISDYSIALDKIK(C16 diacid)QQDFVEWLLAQKPSSGAPPPS-OH (N-terminus assumed; SMILES CC[C@H](C)[C@H](NC(=O)[C@H](CO)NC(=O)[C@H](Cc1ccc(O)cc1)NC(=O)[C@H](CC(=O)O)NC(=O)[C@H](CO)NC(=O)[C@@H](NC(=O)[C@H](Cc1ccccc1)NC(=O)[C@@H](NC(=O)CNC(=O)[C@@H](N)CCC(=O)O)[C@@H](C)O)[C@@H](C)CC)C(=O)N[C@@H](C)C(=O)N[C@@H](CC(C)C)C(=O)N[C@@H](CC(=O)O)C(=O)N[C@@H](CCCCN)C(=O)N[C@H](C(=O)N[C@@H](CCCCNC(=O)CCCCCCCCCCCCCCC(=O)O)C(=O)N[C@@H](CCC(N)=O)C(=O)N[C@@H](CCC(N)=O)C(=O)N[C@@H](CC(=O)O)C(=O)N[C@@H](Cc1ccccc1)C(=O)N[C@H](C(=O)N[C@@H](CCC(=O)O)C(=O)N[C@@H](Cc1c[nH]c2ccccc12)C(=O)N[C@@H](CC(C)C)C(=O)N[C@@H](CC(C)C)C(=O)N[C@@H](C)C(=O)N[C@@H](CCC(N)=O)C(=O)N[C@@H](CCCCN)C(=O)N1CCC[C@H]1C(=O)N[C@@H](CO)C(=O)N[C@@H](CO)C(=O)NCC(=O)N[C@@H](C)C(=O)N1CCC[C@H]1C(=O)N1CCC[C@H]1C(=O)N1CCC[C@H]1C(=O)N[C@@H](CO)C(=O)O)C(C)C)[C@@H](C)CC)", "note": "[AT668]", "cAMP agonism % Emax": 0, "cAMP antagonism": 0.944, "cAMP antagonism % inhib": 92, "cAMP antagonism pIC50": 9},
      {"binder": "EGTFISDYSIA[Nle]DKIK(C16 diacid)QQDFVEWLLAQKPSSGAPPPS-OH (N-terminus assumed; SMILES CCCC[C@H](NC(=O)[C@H](C)NC(=O)[C@@H](NC(=O)[C@H](CO)NC(=O)[C@H](Cc1ccc(O)cc1)NC(=O)[C@H](CC(=O)O)NC(=O)[C@H](CO)NC(=O)[C@@H](NC(=O)[C@H](Cc1ccccc1)NC(=O)[C@@H](NC(=O)CNC(=O)[C@@H](N)CCC(=O)O)[C@@H](C)O)[C@@H](C)CC)[C@@H](C)CC)C(=O)N[C@@H](CC(=O)O)C(=O)N[C@@H](CCCCN)C(=O)N[C@H](C(=O)N[C@@H](CCCCNC(=O)CCCCCCCCCCCCCCC(=O)O)C(=O)N[C@@H](CCC(N)=O)C(=O)N[C@@H](CCC(N)=O)C(=O)N[C@@H](CC(=O)O)C(=O)N[C@@H](Cc1ccccc1)C(=O)N[C@H](C(=O)N[C@@H](CCC(=O)O)C(=O)N[C@@H](Cc1c[nH]c2ccccc12)C(=O)N[C@@H](CC(C)C)C(=O)N[C@@H](CC(C)C)C(=O)N[C@@H](C)C(=O)N[C@@H](CCC(N)=O)C(=O)N[C@@H](CCCCN)C(=O)N1CCC[C@H]1C(=O)N[C@@H](CO)C(=O)N[C@@H](CO)C(=O)NCC(=O)N[C@@H](C)C(=O)N1CCC[C@H]1C(=O)N1CCC[C@H]1C(=O)N1CCC[C@H]1C(=O)N[C@@H](CO)C(=O)O)C(C)C)[C@@H](C)CC)", "note": "[AT669]", "cAMP agonism % Emax": 0, "cAMP antagonism": 3.35, "cAMP antagonism % inhib": 95, "cAMP antagonism pIC50": 8.5}
    ]}
  ]
}
